Patent US20170291955A1 (AstraZeneca / MedImmune, published 2017)

Experiments:
Experiment in all cases: capture ELISA as in Example 1
[1] = molecular target: T1, human EGFR recombinant extracellular domain protein (human, UniProt P00533 25-645)
T1 construct: extracellular domain
Experimental: (§1) Antibody to be tested was prepared by diluting in a stepwise 1:3 serial dilution ranging from 50 nM down to 0.28 pM and then added to the wells in duplicate. After one hour of incubation, plates were washed, and goat anti-human IgG Fab HRP-conjugated secondary antibody was added to each well and the plates were incubated for 1 hour. The plates were washed and TMB substrate was added and incubated for 5-20 min to allow color development. The stop solution was added to the wells at the end of reaction and the plates were read at 450 nm. Binding signal (absorbance at 450 nm) was plotted against antibody concentration using Prism software.

[2] = molecular target: T2, human HER3 recombinant extracellular domain protein (human, UniProt P21860 20-643)
T2 construct: extracellular domain
Experimental: as §1

[3] = molecular target: T3, human HER4 recombinant extracellular domain protein (human, UniProt Q15303 26-651)
T3 construct: extracellular domain
T3 sequence (looked up): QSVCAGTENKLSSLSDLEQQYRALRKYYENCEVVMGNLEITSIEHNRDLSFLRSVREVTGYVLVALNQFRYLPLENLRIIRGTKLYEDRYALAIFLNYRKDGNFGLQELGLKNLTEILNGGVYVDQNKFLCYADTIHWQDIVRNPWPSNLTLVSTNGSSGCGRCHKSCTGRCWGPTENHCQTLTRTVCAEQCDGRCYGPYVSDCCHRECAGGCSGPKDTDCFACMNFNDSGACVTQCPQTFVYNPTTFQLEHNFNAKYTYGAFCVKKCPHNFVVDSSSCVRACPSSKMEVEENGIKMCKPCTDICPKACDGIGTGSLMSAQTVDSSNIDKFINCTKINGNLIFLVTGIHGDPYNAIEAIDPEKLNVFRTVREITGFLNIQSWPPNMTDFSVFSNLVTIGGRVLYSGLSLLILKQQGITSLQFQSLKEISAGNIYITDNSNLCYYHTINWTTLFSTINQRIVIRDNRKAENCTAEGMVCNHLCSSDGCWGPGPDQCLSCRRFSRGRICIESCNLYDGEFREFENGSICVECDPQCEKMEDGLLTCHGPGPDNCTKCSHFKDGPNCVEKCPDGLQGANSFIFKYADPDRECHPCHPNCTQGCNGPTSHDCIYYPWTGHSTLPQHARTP
Experimental: as §1

Measured: binding result

B1: Bs2-4T (bispecific antibody, name in EU numbering)
heavy: not shown
light: DIVMTQTPLSLSVTPGQPASISCKSSQSVFFRSNNKNILAWYLQKPGQPPQLLIYWASSRESGVPDRFSGSGSGTDFTLKISRVEAEDVGVYYCQQYFGSPFTFGPGTKVDIKRTVAAPSVFIFPPSDEQLKSGTASVVCLLNNFYPREAKVQWKVDNALQSGNSQESVTEQDSKDSTYSLSSTLTLSKADYEKHKVYACEVTHQGLSSPVTKSFNRGEC
modifications: tubulysin 1508 (Compound T32) on engineered Cys 239 and Cys 442 (EU index), thiol-maleimide linkage
notes: Antibody-drug conjugate, DAR about 4; also called Bs2Ab-4T; Bs2Ab-39SH-(FCC) construct conjugated to 4 tubulysins
no binding: [1] | [2] | [3]

B2: Bs3Ab-39SH (bispecific antibody, human IgG1, kappa)
heavy: not shown
light: DIVMTQTPLSLSVTPGQPASISCKSSQSVFFRSNNKNILAWYLQKPGQPPQLLIYWASSRESGVPDRFSGSGSGTDFTLKISRVEAEDVGVYYCQQYFGSPFTFGPGTKVDIKRTVAAPSVFIFPPSDEQLKSGTASVVCLLNNFYPREAKVQWKVDNALQSGNSQESVTEQDSKDSTYSLSSTLTLSKADYEKHKVYACEVTHQGLSSPVTKSFNRGEC
no binding: [1] | [2] | [3]

B3: Bs4-4T (bispecific antibody)
heavy: not shown
light: DIVMTQTPLSLSVTPGQPASISCKSSQSVFFRSNNKNILAWYLQKPGQPPQLLIYWASSRESGVPDRFSGSGSGTDFTLKISRVEAEDVGVYYCQQYFGSPFTFGPGTKVDIKRTVAAPSVFIFPPSDEQLKSGTASVVCLLNNFYPREAKVQWKVDNALQSGNSQESVTEQDSKDSTYSLSSTLTLSKADYEKHKVYACEVTHQGLSSPVTKSFNRGEC
modifications: tubulysin 1508 (Compound T32) on engineered Cys 239 and Cys 442 (EU index), thiol-maleimide linkage
notes: Antibody-drug conjugate, DAR about 4; also called Bs4Ab-4T; Bs4Ab-39SH-(FCC) conjugated to 4 tubulysins
no binding: [1] | [2] | [3]
